Results published in publication PMC3776929 (Cell, 2013).

B1: Swc5 (natural protein, S. cerevisiae, UniProt P38326 1-303, looked up)
chain: MPEVETKIIPNEKEDEDEDGYIEEEDEDFQPEKDKLGGGSDDSDASDGGDDYDDGVNRDKGRNKVDYSRIESESGGLIKTRRARQAEEEYAKTHKYESLTVESIPAKVNSIWEELQEASKNRLLSSSGKVGSVLDGSKEARSTTAAQQEDKILIERNYKFAGETVHEKKWVSRSSAEGQEYLNSLKFKQQAPAAPVQLEKAVRTKSNESRQHLRRPLKRPPLLEQIISGGLRPKLTTLEKSQLDWASYVDRAGLNDELVLHNKDGFLARQEFLQRVGSAEDERYKELRRQQLAQQLQQDSEAS
notes: Swc5, subunit of SWR1, S. cerevisiae; also called small subunit Swc5; source: endogenous, S. cerevisiae; co-purified in the SWR1 complex
B2: Yaf9 (natural protein, S. cerevisiae, UniProt P53930 1-226, looked up)
chain: MAPTISKRIKTLSVSRPIIYGNTAKKMGSVKPPNAPAEHTHLWTIFVRGPQNEDISYFIKKVVFKLHDTYPNPVRSIEAPPFELTETGWGEFDINIKVYFVEEANEKVLNFYHRLRLHPYANPVPNSDNGNEQNTTDHNSKDAEVSSVYFDEIVFNEPNEEFFKILMSRPGNLLPSNKTDDCVYSKQLEQEEIDRIEIGIEKVDKEIDELKQKLENLVKQEAINGS
notes: Yaf9, N-Module subunit of SWR1, S. cerevisiae; source: endogenous, S. cerevisiae; co-purified in the SWR1 complex

Columns and labels:
Act1 = target: T1, Act1 (S. cerevisiae, UniProt P60010 1-375); assay: cross-linking; ∼45 μg affinity-purified SWR1 cross-linked with 1 mM DSS d0/d12 in SWR1 buffer, 37°C, 30 min; trypsin, SEC enrichment, LC-MS/MS, xQuest (CX-MS); conditions: both partners purified
T1 construct: Act1 (actin), N-Module subunit of SWR1, S. cerevisiae; source: endogenous, S. cerevisiae; co-purified in the SWR1 complex

[1] = target: T2, Swr1, FLAG-tagged catalytic subunit of the SWR1 complex (S. cerevisiae, UniProt Q05471 1-1514); assay: co-IP; FLAG affinity purification of SWR1 (or a subcomplex) from S. cerevisiae, eluted with 3× FLAG peptide; SDS-PAGE (4%-12% Bis-Tris), Coomassie or SYPRO Orange stain; band intensities normalised for protein size for the stoichiometry; conditions: partners not purified
T2 construct: Swr1, catalytic ATPase subunit of the SWR1 complex, S. cerevisiae; HSA domain in the N-terminal half, split ATPase domain with long insert in the C-terminal half; also called Swr1-3xFLAG; Swr1 ATPase

Swc5 = target: B1; assay: cross-linking; ∼45 μg affinity-purified SWR1 cross-linked with 1 mM DSS d0/d12 in SWR1 buffer, 37°C, 30 min; trypsin, SEC enrichment, LC-MS/MS, xQuest (CX-MS); conditions: both partners purified

T2 sequence (Q05471 whole entry, the tested form may be a part, one chain of several): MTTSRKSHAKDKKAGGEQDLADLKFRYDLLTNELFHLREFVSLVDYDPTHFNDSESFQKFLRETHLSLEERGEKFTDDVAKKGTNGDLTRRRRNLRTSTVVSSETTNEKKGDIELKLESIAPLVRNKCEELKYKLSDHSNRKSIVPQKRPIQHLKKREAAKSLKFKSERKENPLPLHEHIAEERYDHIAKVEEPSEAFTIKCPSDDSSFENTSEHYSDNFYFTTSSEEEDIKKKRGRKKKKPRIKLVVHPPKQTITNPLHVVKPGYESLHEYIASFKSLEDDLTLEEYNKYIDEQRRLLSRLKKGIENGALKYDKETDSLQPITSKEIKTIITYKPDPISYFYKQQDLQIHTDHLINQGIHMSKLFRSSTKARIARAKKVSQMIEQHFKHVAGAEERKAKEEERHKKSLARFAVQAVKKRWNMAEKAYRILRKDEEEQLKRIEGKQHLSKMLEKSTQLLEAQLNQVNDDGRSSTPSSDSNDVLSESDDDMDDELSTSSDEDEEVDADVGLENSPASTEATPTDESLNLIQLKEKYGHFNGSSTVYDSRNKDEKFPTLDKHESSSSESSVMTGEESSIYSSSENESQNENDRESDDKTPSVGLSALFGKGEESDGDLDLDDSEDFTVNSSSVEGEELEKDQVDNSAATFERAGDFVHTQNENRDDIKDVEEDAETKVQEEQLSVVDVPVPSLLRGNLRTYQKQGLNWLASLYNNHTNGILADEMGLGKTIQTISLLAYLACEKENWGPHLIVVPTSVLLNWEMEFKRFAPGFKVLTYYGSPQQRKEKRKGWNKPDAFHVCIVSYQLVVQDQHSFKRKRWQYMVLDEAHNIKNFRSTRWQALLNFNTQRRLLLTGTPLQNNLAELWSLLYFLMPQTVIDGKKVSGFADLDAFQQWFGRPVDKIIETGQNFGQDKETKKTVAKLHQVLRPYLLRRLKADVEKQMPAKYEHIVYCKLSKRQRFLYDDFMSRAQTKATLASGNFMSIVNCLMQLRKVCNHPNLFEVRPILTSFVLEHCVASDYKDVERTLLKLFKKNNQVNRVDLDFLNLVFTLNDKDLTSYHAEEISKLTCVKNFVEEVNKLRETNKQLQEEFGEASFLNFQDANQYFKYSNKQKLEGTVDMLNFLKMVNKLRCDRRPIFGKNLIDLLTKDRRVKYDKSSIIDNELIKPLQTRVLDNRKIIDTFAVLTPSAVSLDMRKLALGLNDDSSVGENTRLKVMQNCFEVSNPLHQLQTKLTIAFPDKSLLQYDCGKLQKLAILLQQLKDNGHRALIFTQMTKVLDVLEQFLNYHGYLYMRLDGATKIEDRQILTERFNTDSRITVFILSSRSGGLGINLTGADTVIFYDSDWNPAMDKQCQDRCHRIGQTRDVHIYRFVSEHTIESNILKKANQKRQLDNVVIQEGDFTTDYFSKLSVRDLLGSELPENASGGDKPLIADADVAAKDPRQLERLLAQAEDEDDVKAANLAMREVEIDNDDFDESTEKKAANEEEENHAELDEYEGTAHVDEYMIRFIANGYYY

Row | binding result (Act1) | binding result [1] | binding result (Swc5) | Binder
1 | binds | binds | – | B1
2 | – | – | binds | B2
